From patent publication US20210071139A1

Tests used:
Assay in all cases: anti-TOX IP from EL4 nuclear extract, LC-MS/MS, MiST
Afg3l1 = Afg3l1 (UniProt Q920A7)
Cd2ap = Cd2ap (UniProt Q9JLQ0)
Cdc27 = Cdc27 (UniProt A2A6Q5)
Chtop = Chtop (UniProt Q9CY57)
Dido1 = Dido1 (UniProt Q8C9B9)
Eif4h = Eif4h (UniProt Q9WUK2)
Eif5b = Eif5b (UniProt Q05D44)
Gm10094; Sap18 = biological target: Gm10094; Sap18
Hs2st1 = Hs2st1 (UniProt Q8R3H7)
Ing2 = Ing2 (UniProt Q9ESK4)
Larp7 = Larp7 (UniProt Q05CL8)
Ogdh = Ogdh (UniProt Q60597)
Pml = Pml (UniProt Q60953)
Pno1 = Pno1 (UniProt Q9CPS7)
Sequence of Pno1 (Q9CPS7 whole entry): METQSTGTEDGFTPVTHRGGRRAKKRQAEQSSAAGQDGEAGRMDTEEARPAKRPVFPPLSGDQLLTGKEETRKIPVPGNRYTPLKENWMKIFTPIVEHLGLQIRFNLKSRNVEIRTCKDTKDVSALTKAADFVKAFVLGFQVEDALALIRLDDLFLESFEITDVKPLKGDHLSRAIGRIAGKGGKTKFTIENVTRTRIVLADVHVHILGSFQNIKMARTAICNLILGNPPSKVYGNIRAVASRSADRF

Ppp1r10 = Ppp1r10 (UniProt Q80W00)
Ptcd3 = Ptcd3 (UniProt Q14C51)
Rif1 = Rif1 (UniProt Q6PR54)
Rpl36a = Rpl36a (UniProt P83882)
Sltm = Sltm (UniProt Q8CH25)
Sequence of Sltm (Q8CH25 2-1031 limits assumed): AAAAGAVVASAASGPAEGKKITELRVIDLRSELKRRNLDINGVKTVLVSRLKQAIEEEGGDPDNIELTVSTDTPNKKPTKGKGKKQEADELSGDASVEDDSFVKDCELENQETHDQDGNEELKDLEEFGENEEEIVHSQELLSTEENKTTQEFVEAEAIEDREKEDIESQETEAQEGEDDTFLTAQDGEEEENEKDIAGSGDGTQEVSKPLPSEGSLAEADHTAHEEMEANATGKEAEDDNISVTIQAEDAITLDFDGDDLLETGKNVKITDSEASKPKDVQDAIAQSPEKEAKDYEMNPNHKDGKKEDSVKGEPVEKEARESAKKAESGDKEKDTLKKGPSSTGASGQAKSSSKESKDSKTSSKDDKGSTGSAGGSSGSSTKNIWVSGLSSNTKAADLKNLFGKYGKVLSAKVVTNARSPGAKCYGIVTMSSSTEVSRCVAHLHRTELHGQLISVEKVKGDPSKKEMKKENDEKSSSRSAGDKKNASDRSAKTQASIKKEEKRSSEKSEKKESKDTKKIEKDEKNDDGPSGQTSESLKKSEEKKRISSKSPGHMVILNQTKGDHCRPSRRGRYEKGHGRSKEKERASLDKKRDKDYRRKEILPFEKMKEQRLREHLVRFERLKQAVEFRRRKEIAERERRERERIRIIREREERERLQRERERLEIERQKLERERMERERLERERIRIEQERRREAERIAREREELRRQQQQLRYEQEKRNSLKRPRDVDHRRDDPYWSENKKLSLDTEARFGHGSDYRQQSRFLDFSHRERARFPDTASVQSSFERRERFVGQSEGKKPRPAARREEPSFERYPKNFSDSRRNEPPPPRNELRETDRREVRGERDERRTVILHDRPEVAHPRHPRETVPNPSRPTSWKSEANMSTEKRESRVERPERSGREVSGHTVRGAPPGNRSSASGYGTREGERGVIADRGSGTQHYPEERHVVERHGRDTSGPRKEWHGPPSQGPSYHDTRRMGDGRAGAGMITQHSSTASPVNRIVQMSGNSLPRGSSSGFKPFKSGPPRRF

Snx9 = Snx9 (UniProt Q91VH2)
Terf2ip = Terf2ip (UniProt Q91VL8)
Trim21 = Trim21 (UniProt Q62191)
Trip12 = Trip12 (UniProt G5E870)
Sequence of Trip12 (G5E870 2-2025 limits assumed): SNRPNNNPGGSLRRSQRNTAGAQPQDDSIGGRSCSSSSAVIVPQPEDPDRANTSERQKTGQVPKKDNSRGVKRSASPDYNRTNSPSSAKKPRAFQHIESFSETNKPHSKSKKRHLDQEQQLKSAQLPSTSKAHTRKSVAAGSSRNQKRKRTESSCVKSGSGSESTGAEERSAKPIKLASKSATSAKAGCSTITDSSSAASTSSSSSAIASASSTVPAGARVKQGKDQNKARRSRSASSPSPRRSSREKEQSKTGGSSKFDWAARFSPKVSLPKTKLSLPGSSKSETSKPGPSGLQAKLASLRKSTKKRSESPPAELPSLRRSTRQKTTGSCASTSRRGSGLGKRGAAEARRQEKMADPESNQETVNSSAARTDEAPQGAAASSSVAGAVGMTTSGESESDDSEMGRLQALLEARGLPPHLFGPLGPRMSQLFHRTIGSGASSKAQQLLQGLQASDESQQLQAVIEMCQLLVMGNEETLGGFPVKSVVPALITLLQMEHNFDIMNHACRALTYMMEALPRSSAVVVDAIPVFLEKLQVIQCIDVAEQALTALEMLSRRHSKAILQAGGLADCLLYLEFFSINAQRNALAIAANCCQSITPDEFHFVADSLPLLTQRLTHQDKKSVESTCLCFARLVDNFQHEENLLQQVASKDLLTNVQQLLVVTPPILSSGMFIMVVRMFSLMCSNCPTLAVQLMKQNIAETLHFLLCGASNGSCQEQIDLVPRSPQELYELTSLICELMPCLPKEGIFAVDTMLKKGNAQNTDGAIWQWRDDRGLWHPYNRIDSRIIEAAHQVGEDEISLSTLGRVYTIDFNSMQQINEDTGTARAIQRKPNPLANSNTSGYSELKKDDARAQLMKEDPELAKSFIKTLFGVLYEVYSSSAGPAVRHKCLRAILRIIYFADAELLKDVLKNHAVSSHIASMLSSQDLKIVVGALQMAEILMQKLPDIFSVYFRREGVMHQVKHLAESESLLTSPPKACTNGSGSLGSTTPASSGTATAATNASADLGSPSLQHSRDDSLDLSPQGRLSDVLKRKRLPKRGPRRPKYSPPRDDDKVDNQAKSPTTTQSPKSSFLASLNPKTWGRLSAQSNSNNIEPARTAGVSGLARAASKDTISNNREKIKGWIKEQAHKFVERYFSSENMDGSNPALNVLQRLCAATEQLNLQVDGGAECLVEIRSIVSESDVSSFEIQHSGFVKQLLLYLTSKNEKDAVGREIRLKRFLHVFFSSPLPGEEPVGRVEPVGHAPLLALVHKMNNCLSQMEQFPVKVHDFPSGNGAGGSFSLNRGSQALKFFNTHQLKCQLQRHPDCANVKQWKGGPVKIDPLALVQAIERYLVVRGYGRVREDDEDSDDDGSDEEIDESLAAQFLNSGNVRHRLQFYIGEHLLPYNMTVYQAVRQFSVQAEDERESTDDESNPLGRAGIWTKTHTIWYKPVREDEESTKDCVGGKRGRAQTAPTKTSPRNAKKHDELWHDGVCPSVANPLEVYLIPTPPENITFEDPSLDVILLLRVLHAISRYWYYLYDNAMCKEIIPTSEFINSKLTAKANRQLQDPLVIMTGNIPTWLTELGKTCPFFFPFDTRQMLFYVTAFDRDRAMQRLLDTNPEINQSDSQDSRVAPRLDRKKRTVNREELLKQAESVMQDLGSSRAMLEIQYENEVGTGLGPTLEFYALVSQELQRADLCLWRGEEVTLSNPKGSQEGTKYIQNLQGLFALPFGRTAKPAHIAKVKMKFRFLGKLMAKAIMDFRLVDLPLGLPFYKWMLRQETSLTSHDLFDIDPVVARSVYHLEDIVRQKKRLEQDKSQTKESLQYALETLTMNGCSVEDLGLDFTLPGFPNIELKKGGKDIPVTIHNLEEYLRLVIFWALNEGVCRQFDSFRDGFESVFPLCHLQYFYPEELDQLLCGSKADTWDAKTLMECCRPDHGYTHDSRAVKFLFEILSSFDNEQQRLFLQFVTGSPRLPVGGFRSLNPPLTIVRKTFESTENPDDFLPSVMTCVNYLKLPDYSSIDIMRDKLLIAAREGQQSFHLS

Utp18 = Utp18 (UniProt Q5SSI6)
Zfr = Zfr (UniProt O88532)

Sequence of Afg3l1 (Q920A7 71-789 limits assumed): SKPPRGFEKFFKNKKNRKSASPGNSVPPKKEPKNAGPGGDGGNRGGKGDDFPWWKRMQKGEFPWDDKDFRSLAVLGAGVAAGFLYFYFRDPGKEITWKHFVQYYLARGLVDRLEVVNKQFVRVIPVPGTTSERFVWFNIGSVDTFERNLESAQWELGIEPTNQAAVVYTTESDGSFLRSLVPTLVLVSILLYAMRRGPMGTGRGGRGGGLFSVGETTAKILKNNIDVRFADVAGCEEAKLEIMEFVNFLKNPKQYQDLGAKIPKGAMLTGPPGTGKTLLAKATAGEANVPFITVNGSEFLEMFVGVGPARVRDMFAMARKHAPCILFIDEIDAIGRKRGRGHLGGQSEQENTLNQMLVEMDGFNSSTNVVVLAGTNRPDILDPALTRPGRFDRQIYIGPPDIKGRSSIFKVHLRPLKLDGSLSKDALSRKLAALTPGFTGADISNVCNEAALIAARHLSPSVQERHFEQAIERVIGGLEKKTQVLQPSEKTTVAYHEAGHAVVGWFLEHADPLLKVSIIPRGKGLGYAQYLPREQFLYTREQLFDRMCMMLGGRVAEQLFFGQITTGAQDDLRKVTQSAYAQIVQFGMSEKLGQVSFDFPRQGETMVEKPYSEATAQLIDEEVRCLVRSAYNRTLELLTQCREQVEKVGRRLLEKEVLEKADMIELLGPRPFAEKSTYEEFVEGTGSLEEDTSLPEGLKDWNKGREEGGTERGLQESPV
Sequence of Eif4h (Q9WUK2 2-248 limits assumed): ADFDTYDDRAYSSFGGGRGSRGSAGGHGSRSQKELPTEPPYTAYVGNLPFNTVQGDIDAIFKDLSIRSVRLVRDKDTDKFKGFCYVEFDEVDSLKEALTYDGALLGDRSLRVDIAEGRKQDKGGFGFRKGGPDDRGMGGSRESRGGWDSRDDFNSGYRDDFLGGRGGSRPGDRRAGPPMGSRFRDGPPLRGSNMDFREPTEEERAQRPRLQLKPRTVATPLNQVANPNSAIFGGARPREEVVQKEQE
Sequence of Hs2st1 (Q8R3H7 whole entry): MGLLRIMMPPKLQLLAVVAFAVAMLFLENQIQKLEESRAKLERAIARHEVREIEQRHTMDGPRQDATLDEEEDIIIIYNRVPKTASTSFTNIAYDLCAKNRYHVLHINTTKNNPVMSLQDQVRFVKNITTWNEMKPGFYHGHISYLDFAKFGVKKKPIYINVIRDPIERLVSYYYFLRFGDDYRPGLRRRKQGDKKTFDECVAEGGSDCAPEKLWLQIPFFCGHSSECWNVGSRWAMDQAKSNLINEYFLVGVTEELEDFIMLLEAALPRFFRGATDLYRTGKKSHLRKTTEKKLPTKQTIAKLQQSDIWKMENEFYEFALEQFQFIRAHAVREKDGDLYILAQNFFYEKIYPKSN
Sequence of Chtop (Q9CY57 2-249 limits assumed): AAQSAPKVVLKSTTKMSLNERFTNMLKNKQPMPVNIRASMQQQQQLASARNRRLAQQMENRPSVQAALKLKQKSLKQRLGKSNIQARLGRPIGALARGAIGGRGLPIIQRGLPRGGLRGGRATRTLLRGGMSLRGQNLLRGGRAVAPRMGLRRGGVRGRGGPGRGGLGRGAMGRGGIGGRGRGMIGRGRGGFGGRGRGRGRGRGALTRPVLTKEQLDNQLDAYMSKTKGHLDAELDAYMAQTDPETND

TOX (from UniProt Q66JW3 1-526) was tested, and the Abundance (Afg3l1) was 2.15e-06, the MiST Score (Afg3l1) was 0.874 and the Reproducibility (Afg3l1) was 0.61. It also gave a Specificity (Afg3l1) of 1, an Abundance (Cd2ap) of 5.85e-07 and a MiST Score (Cd2ap) of 0.879. The Reproducibility (Cd2ap) was 0.628, the Specificity (Cd2ap) was 1 and the Abundance (Cdc27) was 6.71e-06. For the same substance, the MiST Score (Cdc27) was 0.87, the Reproducibility (Cdc27) was 0.597 and the Specificity (Cdc27) was 1. For the same substance, the Abundance (Chtop) was 0.000479, the MiST Score (Chtop) was 0.862 and the Reproducibility (Chtop) was 0.936. It also gave a Specificity (Chtop) of 0.837, an Abundance (Dido1) of 3.41e-07 and a MiST Score (Dido1) of 0.878. The Reproducibility (Dido1) was 0.624, the Specificity (Dido1) was 1 and the Abundance (Eif4h) was 1.07e-05. The MiST Score (Eif4h) was 0.869, the Reproducibility (Eif4h) was 0.595 and the Specificity (Eif4h) was 1. For the same substance, the Abundance (Eif5b) was 7.46e-06, the MiST Score (Eif5b) was 0.878 and the Reproducibility (Eif5b) was 0.771. The Specificity (Eif5b) was 0.933, the Abundance (Gm10094; Sap18) was 2.26e-05 and the MiST Score (Gm10094; Sap18) was 0.878. For the same substance, the Reproducibility (Gm10094; Sap18) was 0.625, the Specificity (Gm10094; Sap18) was 1 and the Abundance (Hs2st1) was 6.47e-06. The MiST Score (Hs2st1) was 0.879, the Reproducibility (Hs2st1) was 0.628 and the Specificity (Hs2st1) was 1. The Abundance (Ing2) was 2.44e-05, the MiST Score (Ing2) was 0.878 and the Reproducibility (Ing2) was 0.625. For the same substance, the Specificity (Ing2) was 1, the Abundance (Larp7) was 9.12e-06 and the MiST Score (Larp7) was 0.859. For the same substance, the Reproducibility (Larp7) was 0.896, the Specificity (Larp7) was 0.849 and the Abundance (Ogdh) was 1.34e-05. For the same substance, the MiST Score (Ogdh) was 0.88, the Reproducibility (Ogdh) was 0.851 and the Specificity (Ogdh) was 0.902. For the same substance, the Abundance (Pml) was 8.97e-06, the MiST Score (Pml) was 0.858 and the Reproducibility (Pml) was 0.557. For the same substance, the Specificity (Pml) was 1, the Abundance (Pno1) was 0.000116 and the MiST Score (Pno1) was 0.884. For the same substance, the Reproducibility (Pno1) was 0.988, the Specificity (Pno1) was 0.845 and the Abundance (Ppp1r10) was 1.37e-05. It also gave a MiST Score (Ppp1r10) of 0.868, a Reproducibility (Ppp1r10) of 0.65 and a Specificity (Ppp1r10) of 0.974. For the same substance, the Abundance (Ptcd3) was 1.85e-06, the MiST Score (Ptcd3) was 0.88 and the Reproducibility (Ptcd3) was 0.631. For the same substance, the Specificity (Ptcd3) was 1, the Abundance (Rif1) was 1.07e-07 and the MiST Score (Rif1) was 0.874. It also gave a Reproducibility (Rif1) of 0.611, a Specificity (Rif1) of 1 and an Abundance (Rpl36a) of 0.000923. The MiST Score (Rpl36a) was 0.895, the Reproducibility (Rpl36a) was 0.679 and the Specificity (Rpl36a) was 1. For the same substance, the Abundance (Sltm) was 2.12e-06, the MiST Score (Sltm) was 0.864 and the Reproducibility (Sltm) was 0.988. For the same substance, the Specificity (Sltm) was 0.816, the Abundance (Snx9) was 5.29e-06 and the MiST Score (Snx9) was 0.877. For the same substance, the Reproducibility (Snx9) was 0.621, the Specificity (Snx9) was 1 and the Abundance (Terf2ip) was 2.33e-05. For the same substance, the MiST Score (Terf2ip) was 0.869, the Reproducibility (Terf2ip) was 0.595 and the Specificity (Terf2ip) was 1. It also gave an Abundance (Trim21) of 4.56e-06, a MiST Score (Trim21) of 0.858 and a Reproducibility (Trim21) of 0.56. For the same substance, the Specificity (Trim21) was 1, the Abundance (Trip12) was 1.4e-06 and the MiST Score (Trip12) was 0.866. For the same substance, the Reproducibility (Trip12) was 0.585, the Specificity (Trip12) was 1 and the Abundance (Utp18) was 1.83e-05. For the same substance, the MiST Score (Utp18) was 0.865, the Reproducibility (Utp18) was 0.582 and the Specificity (Utp18) was 1. For the same substance, the Abundance (Zfr) was 2.44e-06, the MiST Score (Zfr) was 0.866 and the Reproducibility (Zfr) was 0.991. For the same substance, the Specificity (Zfr) was 0.817.
